This is an account of results in patent US20200087367A1 (ACCELERON PHARMA, published 2020).

Where two headings read alike, the source gives them in different places.

In assay [1] the target is T1, hENG(26-437)-hFc (human, UniProt P17813 26-437).
T1 construct: HEK 293, purified; not shown: linker and human IgG1 Fc domain
T1 sequence: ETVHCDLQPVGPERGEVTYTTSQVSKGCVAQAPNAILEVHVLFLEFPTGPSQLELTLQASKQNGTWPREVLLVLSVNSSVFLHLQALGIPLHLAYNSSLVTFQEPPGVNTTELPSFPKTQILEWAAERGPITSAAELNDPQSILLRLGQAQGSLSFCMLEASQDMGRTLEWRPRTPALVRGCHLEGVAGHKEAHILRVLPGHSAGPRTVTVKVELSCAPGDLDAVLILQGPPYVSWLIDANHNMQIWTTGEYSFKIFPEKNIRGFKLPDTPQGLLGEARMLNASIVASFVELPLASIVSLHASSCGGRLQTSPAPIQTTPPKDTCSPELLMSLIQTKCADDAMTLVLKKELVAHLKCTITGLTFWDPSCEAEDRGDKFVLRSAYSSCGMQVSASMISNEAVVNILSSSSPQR
Kind of assay: SPR kinetics; HEK293-cell-derived protein. (In general: Surface plasmon resonance follows binding to a sensor surface in real time, without labels.)

Assay [2] has as its target T1, hENG(26-437)-hFc. Kind of assay: SPR kinetics; HEK293-cell-derived protein. This is another data set of the same source.

B1: BMP10 (ligand)
chain: NAKGNYCKRTPLYIDFKEIGWDSWIIAPPGYEAYECRGVCNYPLAEHLTPTKHAIIQALVHLKNSQKASKACCVPTKLEPISILYLDKGVVTYKFKYEGMAVSECGCR
notes: also called hBMP-10; hBMP10
As usually defined, the Kd is a measure of binding affinity in units of concentration. A low value points to higher affinity. Broadly, the koff is the rate constant with which the complex falls apart. Turning to B1, in the assay with hENG(26-437)-hFc [1], the Kd was determined as 0.13 nM and the koff came to 0.0028 s⁻¹.

B2: BMP9 (ligand, human, UniProt Q9UK05 320-429, looked up)
chain: SAGAGSHCQKTSLRVNFEDIGWDSWIIAPKEYEAYECKGGCFFPLADDVTPTKHAIVQTLVHLKFPTKVGKACCVPTKLSPISVLYKDDMGVPTLKYHYEGMSVAECGCR
notes: also called hBMP-9; hBMP9
With B2, in the assay with hENG(26-437)-hFc [2], the Kd was determined as 0.019 nM and the koff turned out to be 0.0014 s⁻¹.
